Experimental data: patent CN114014929A (JIANGSU QYUNS THERAPEUTICS CO LTD, dated 2022)

Tests used:
[1] = molecular target: T1, 人白介素-33 (human interleukin-33, recombinant) (human, UniProt O95760 112-270); experiment: cell-based or functional assay
T1 sequence: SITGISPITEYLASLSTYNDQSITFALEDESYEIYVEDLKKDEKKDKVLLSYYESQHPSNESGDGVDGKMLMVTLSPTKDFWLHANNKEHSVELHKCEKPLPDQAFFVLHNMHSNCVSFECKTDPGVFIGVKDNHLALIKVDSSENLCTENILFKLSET

[2] = molecular target: T2, 天然人白介素-33 (natural human interleukin-33 from HFL-1 cell lysate) (human, UniProt O95760 1-270, limits assumed); experiment: cell-based or functional assay
T2 sequence (looked up): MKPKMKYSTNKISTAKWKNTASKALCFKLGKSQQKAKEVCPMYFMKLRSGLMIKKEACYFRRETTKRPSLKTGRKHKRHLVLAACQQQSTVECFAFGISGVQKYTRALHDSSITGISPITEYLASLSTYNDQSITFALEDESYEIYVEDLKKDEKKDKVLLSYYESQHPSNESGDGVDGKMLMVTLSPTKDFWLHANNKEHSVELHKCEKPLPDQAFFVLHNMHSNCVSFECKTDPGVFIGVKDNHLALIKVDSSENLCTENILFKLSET

B1: QX007N(HZD78-70) (antibody, V domains shown)
VH: EVQLVESGGGLVQPGGSLRLSCAASGFSLSSYHMIWVRQAPGKGLEWVGVIYPNSNIYYATWAKGRFTISRDNSKNTLYLQMNSLRAEDTAVYYCARTIYVHVYSALSIWGQGTLVTVSS
VL: AFQMTQSPSSVSASVGDRVTITCQASESVLNEVSWYQQKPGKAPKLLIYFASKLASGVPSRFSGSGSGTDFTLTISSLQPEDFATYYCQQDWSMDNIDNAFGGGTKVEIKR
- 中和人白介素-33诱导人全血释放IFN-γ, IC50 [1]: 16 ng/mL
- 中和人白介素-33诱导的KU812细胞释放IL-5 (IL-5 ELISA), IC50 [1]: 5.87 ng/mL
- 中和重组人白介素-33诱导HEK Blue IL-33细胞中NF-κB/AP-1信号转导 (SEAP, OD630nm), IC50 [1]: 6.67 ng/mL
- 中和天然人白介素-33诱导HEK Blue IL-33细胞中NF-κB/AP-1信号转导 (SEAP, OD630nm), IC50 [2]: 3.91 ng/mL
